US6958236B2, “Control of gene expression in plants” (priority 2000, dated 2005)

Test system: pCGS206 (luciferase reporter with response elements for the GAL4 DNA binding domain)
Test: Maize BMS cells bombarded with GAL4 luciferase reporter and receptor vector, GUS-normalized luciferase
Assay type: cell-based
Conditions: for Normalized Average (EtOH): unliganded background
Description: Maize BMS (Black Mexican Sweet) cultured cells are transfected with pCGS206 and pCGS208 by high velocity microprojectile bombardment. In addition, an expression plasmid containing the maize ubiquitin promoter driving the expression of β-glucuronidase (GUS) is added to the transfection to serve as an internal control to normalize against variations among the samples.
Transfections are treated and cell lysates are made essentially as described in U.S. Pat. No. 5,880,333. […] Both luciferase and GUS assays are performed with 20 μl of cell lysate for each assay using the Promega Luciferase Kit (Promega cat #E1500) and GUS-Light Kit (Tropix) respectively. Relative light units are determined using a Turner Designs TD 20/20 luminometer.
In addition to tebufenozide, methoxytebufenozide (“MethoxyTeb”) is also capable of inducing gene expression in maize BMS cells. Both pCGS206 and pCGS208 are transfected as described above and methoxytebufenozide is added in place of tebufenozide at 25 μM and 10 μM.
Maize BMS cells are transfected and assayed as in Example 12.
Transformation of maize suspension cells, chemical treatment, and reporter activity assays are performed as described in Example 12. Maize BMS (Black Mexican Sweet) cultured cells are transfected with pCGS206 (pBS-bz1TATA/intronLUC), pCGS203 (G(M)MV), pCGS672 (G(M)MC), and pCGS678 (G(M)MD) by high velocity microprojectile bombardment. In addition, an expression plasmid containing the maize ubiquitin promoter driving the expression of β-glucuronidase (GUS) is added to the transfection to serve as an internal control to normalize against variations among the samples.
Maize BMS cells are bombarded with reporter vector pCGS206 and chimeric receptors and treated with tebufenozide essentially as described in Example 12. Transfections are treated and cell lysates are made essentially as described in U.S. Pat. No. 5,880,333. […] Both luciferase and GUS assays are performed with 20 μl of cell lysate for each assay using the Promega Luciferase Kit (Promega cat #E1500) and GUS-Light Kit (Tropix) respectively. Relative light units (RLU) are determined using a Turner Designs TD 20/20 luminometer.

[1] = Example 24, Experiment 1, 20 μM Teb
[2] = Example 24, Experiment 1, BMS cells
[3] = Example 24, Experiment 2, 20 μM Teb
[4] = Example 24, Experiment 2, BMS cells
[5] = Example 26, + 10 μM Teb vs without
[6] = Example 26, BMS cells, reporter pCGS206, no ligand
[7] = Example 28, BMS cells, reporter pCGS206, no ligand, GUS-normalized

Row | Molecule | average fold activation of the Manduca G(M)MV EcR (ubi/GAL4-MV) (maize BMS cells, methoxytebufenozide 25 μM and 10 μM) [fold] | Fold Induction with Teb Relative to Receptor with EtOH [1] [fold] | Fold Induction with Teb Relative to Reporter with EtOH [1] [fold] | Normalized Average (EtOH) [2] | Fold Induction with Teb Relative to Receptor with EtOH [3] [fold] | Fold Induction with Teb Relative to Reporter with EtOH [3] [fold] | Normalized Average (EtOH) [4] | Experiment #1 Luciferase (Example 26, + 10 μM Teb) | Experiment #2 Luciferase (Example 26, + 10 μM Teb) | Experiment #1 Fold Induction [5] [fold] | Experiment #2 Fold Induction [5] [fold] | Experiment #1 Luciferase [6] | Experiment #2 Luciferase [6] | Experiment #1 RLU [7] [RLU] | Experiment #2 RLU [7] [RLU] | average fold induction with tebufenozide (maize BMS cells, 10 μM tebufenozide, average of assays) [fold] | rank of fold induction among D+E domain combinations (Example 24, BMS cells, 20 μM Teb)
1 | COc1cccc(C(=O)NN(C(=O)c2cc(C)cc(C)c2)C(C)(C)C)c1C [methoxytebufenozide, reference compound] | 25 |  |  |  |  |  |  |  |  |  |  |  |  |  |  |  | 
2 | G(M)MV: EcR chimera: GAL4 DNA binding domain, Manduca sexta D and E domains, VP16; SEQ ID NO:104-105 (protein, (1)..(3972) GAL4-Manduca EcR-VP16 fragment in pCGS202) MKLLSSIEQACDICRLKKLKCSKEKPKCAKCLKNNWECRYSPKTKRSPLTRAHLTEVESRLERLEQLFLLIFPREDLDMILKMDSLQDIKALLTGLFVQDNVNKDAVTDRLASVETDMPLTLRQHRISATSSSEESSNKGQRQLTVSTRMRPECVVPESTCKNKRREKEAQREKDKLPVSTTTVDDHMPAIMQCDPPPPEAARIHEVVPRFLTEKLMEQNRLKNVTPLSANQKSLIARLVWYQEGYEQPSEEDLKRVTQTWQLEEEEEEETDMPFRQITEMTILTVQLIVEFAKGLPGFSKISQSDQITLLKASSSEVMMLRVARRYDAATDSVLFANNQAYTRDNYRKAGMSYVIEDLLHFCRCMYSMSMDNVHYALLTAIVIFSDRPGLEQPLLVEEIQRYYLKTLRVYILNQHSASPRCAVLFGKILGVLTELRTLGTQNSNMCISLKLKNRKLPPFLEEIWDVAEVSTTKLAPPTDVSLGDELHLDGEDVAMAHADALDDFDLDMLGDGDSPGPGFTPHDSAPYGALDMADFEFEQMFTDALGIDEYGG |  | 44 | 83 | 6.889 | 15 | 61 | 1.721 | 99.49 | 136.41 | 16.7 | 35.1 | 5.97 | 3.89 | 3.73 | 3.17 | 36 | 
3 | G(M)FV: EcR chimera: GAL4 DBD, Manduca sexta D domain, fall armyworm E domain, VP16; SEQ ID NO:122-123 (protein) MQQLYVDFFSPAFIRYLFAWYCFFCRCSPCCLVLLLQGSATMKLLSSIEQACDICRLKKLKCSKEKPKCAKCLKNNWECRYSPKTKRSPLTRAHLTEVESRLERLEQLFLLIFPREDLDMILKMDSLQDIKALLTGLFVQDNVNKDAVTDRLASVETDMPLTLRQHRISATSSSEESSNKGQRQLTVSTRMRPECVVPESTCKNKRREKEAQREKDKLPVSTTTVDDHMPAIMQCDPPPPEAARIHEVVPRFLTEKLMEQNRLKNVTPLSANQKSLIARLVWYQEGYEQPSEEDLKRVTQTWQLEEEEEEETDMPFRQITEMTILTVQLIVEFAKGLPGFSKISQSDQITLLKASSSEVMMLRVARRYDAATDSVLFANNQAYTRDNYRKAGMSYVIGDLLHFCRCMYSMSMDNVHYALLTAIVIFSDRPGLEQPLLVEEIQRYYLKTLRVYILNQYSASPRCAVLFGKILGVLTELRTLGTQNSNMCISLKLKNRKLPPFLEEIWDVKLAPPTDVSLGDELHLDGEDVAMAHADALDDFDLDMLGDGDSPGPGFTPHDSAPYGALDMADFEFEQMFTDALGIDEYGG |  | 51 | 52 | 3.766 | 24 | 57 | 0.484 |  |  |  |  |  |  |  |  |  | 
4 | G(M)EV: EcR chimera: GAL4 DBD, Manduca sexta D domain, European corn borer E domain, VP16; SEQ ID NO:120-121 (protein) MQQLYVDFFSPAFIRYLFAWYCFFCRCSPCCLVLLLQGSATMKLLSSIEQACDICRLKKLKCSKEKPKCAKCLKNNWECRYSPKTKRSPLTRAHLTEVESRLERLEQLFLLIFPREDLDMILKMDSLQDIKALLTGLFVQDNVNKDAVTDRLASVETDMPLTLRQHRISATSSSEESSNKGQRQLTVSTRMRPECVVPESTCKNKRREKEAQREKDKLPVSTTTVDDHMPAIMQCDPPPPEAARIHEVVPRFLTEKLMEQNRLKNVTPLSANQKSLIARLVWYQDGYEQPSEEDLKRVTQTWQSADEEDEDSDMPFRQITEMTILTVQLIVEFAKGLPGFSKISQPDQITLLKACSSEVMMLRVARRYDAVSDSVLFANNQAYTRDNYRKAGMAYVIEDLLHFCRCMYSMSMDNVHYALLTAIVIFSDRPGLEQPQLVEEIQRYYLNTLRVYIMNQHSASPRCAVIYAKILSVLTELRTLGMQNSNMCISLKLKNRKLPPFLEEIWDVKLAPPTDVSLGDELHLDGEDVAMAHADALDDFDLDMLGDGDSPGPGFTPHDSAPYGALDMADFEFEQMFTDALGIDEYGG |  | 63 | 119 | 6.965 | 58 | 139 | 0.028 |  |  |  |  |  |  |  |  |  | highest fold induction
5 | G(E)EV: EcR chimera: GAL4 DBD, European corn borer D and E domains, VP16; SEQ ID NO:124-125 (protein) MQQLYVDFFSPAFIRYLFAWYCFFCRCSPCCLVLLLQGSATMKLLSSIEQACDICRLKKLKCSKEKPKCAKCLKNNWECRYSPKTKRSPLTRAHLTEVESRLERLEQLFLLIFPREDLDMILKMDSLQDIKALLTGLFVQDNVNKDAVTDRLASVETDMPLTLRQHRISATSSSEESSNKGQRQLTVSTRMRPECVVPETQCAQKRKEKKAQREKDKLPVSTTTVDDHMPPIMQCDPPPPEAARILECLQHEVVPRFLSEKLMEQNRLKNIPPLTANQQFLIARLVWYQDGYEQPSEEDLKRVTQTWQSADEEDEDSDMPFRQITEMTILTVQLIVEFAKGLPGFSKISQPDQITLLKACSSEVMMLRVARRYDAVSDSVLFANNQAYTRDNYRKAGMAYVIEDLLHFCRCMYSMSMDNVHYALLTAIVIFSDRPGLEQPQLVEEIQRYYLNTLRVYIMNQHSASPRCAVIYAKILSVLTELRTLGMQNSNMCISLKLKNRKLPPFLEEIWDVKLAPPTDVSLGDELHLDGEDVAMAHADALDDFDLDMLGDGDSPGPGFTPHDSAPYGALDMADFEFEQMFTDALGIDEYGG |  | 57 | 119 | 7.601 | 17 | 99 | 2.394 |  |  |  |  |  |  |  |  |  | 
6 | G(M)BV: EcR chimera: GAL4 DBD, Manduca sexta D domain, black cutworm E domain, VP16; SEQ ID NO:118-119 (protein) MQQLYVDFFSPAFIRYLFAWYCFFCRCSPCCLVLLLQGSATMKLLSSIEQACDICRLKKLKCSKEKPKCAKCLKNNWECRYSPKTKRSPLTRAHLTEVESRLERLEQLFLLIFPREDLDMILKMDSLQDIKALLTGLFVQDNVNKDAVTDRLASVETDMPLTLRQHRISATSSSEESSNKGQRQLTVSTRMRPECVVPESTCKNKRREKEAQREKDKLPVSTTTVDDHMPAIMQCDPPPPEAARIHEVVPRFLTEKLMEQNRLKNVTPLSANQKSLIARLVWYQEGYEQPSEEDLKRVTQTWQSDEDEEESDMPFRQITEMTILTVQLIVEFAKGLPGFAKISQSDQITLLKACSSEVMMLRVARRYDAATDSVLFANNQAYSRDNYRKAGMSYVIEDLLHFCRCMYSMMMDNVHYALLTAIVIFSDRPGLEQPLLVEEIQRYYLNTLRVYILNQNSASPRCPVVFAKILGILTELRTLGMQNSNMCISLKLKNRKLPPFLEEIWDVESRGKLAPPTDVSLGDELHLDGEDVAMAHADALDDFDLDMLGDGDSPGPGFTPHDSAPYGALDMADFEFEQMFTDALGIDEYGG |  | 34 | 81 | 8.701 | 26 | 95 | 1.539 |  |  |  |  |  |  |  |  |  | 
